Experiment [1] has as its target Survivin96-104/HLA-A2-Fc-STag. Briefly: flow cytometry of pMHC-Fc-loaded α-Fc-based T-Plex beads stained with BB7.2.
Experiment [2] concerns the target HCMV pp65495-503/HLA-A2-Fc (Human cytomegalovirus). The experiment is described as above.

Turning to “αHLA-A2 mAb (Clone BB7.2/BioLegend) of IgG2b isotype (antibody)”, the fold MFI against pMHC-pCC-Fc-loaded SAv-based T-Plex beads in experiment [1] and in experiment [2] was 4 fold throughout.

Source of the values: patent publication US20220381770A1.
